# Data published in paper PMC2756588.
# Columns and labels:
# Assay in all cases: SPOT array
# Abp1, P15891 = target: T1, Abp1, P15891; conditions: median of control spots 935
# T1 sequence (P15891 535-592, looked up): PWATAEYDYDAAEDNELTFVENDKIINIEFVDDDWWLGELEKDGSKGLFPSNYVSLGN
# Bbc1, P47068 = target: T2, Bbc1, P47068; conditions: median of control spots 796
# T2 sequence (P47068 1-78, looked up): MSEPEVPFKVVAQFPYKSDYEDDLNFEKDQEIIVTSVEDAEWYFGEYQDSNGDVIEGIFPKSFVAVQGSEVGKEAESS
# Bem1-1, P29366 = conditions: median of control spots 4282
# Bem1-2, P29366 = conditions: median of control spots 4347
# Boi1, P38041 = target: T3, Boi1, P38041; conditions: median of control spots 1162
# T3 sequence (P38041 1-86, looked up): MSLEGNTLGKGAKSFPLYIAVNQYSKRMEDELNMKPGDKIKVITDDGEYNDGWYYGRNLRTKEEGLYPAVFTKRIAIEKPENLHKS
# Boi2, P39969 = target: T4, Boi2, P39969; conditions: median of control spots 1161
# T4 sequence (P39969 32-116, looked up): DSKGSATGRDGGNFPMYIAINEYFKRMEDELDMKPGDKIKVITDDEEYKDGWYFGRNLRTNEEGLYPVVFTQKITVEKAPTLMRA
# Bud14, P27637 = target: T5, Bud14, P27637; conditions: median of control spots 956
# T5 sequence (P27637 247-328, looked up): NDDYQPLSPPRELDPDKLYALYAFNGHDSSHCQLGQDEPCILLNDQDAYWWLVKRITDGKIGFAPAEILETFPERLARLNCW
# Bzz1-1, P38822 = target: T6, Bzz1-1, P38822; conditions: median of control spots 4446
# T6 sequence (P38822 478-572, looked up): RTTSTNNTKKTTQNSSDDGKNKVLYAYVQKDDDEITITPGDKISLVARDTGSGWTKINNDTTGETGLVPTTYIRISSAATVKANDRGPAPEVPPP
# Bzz1-2, P38822 = target: T7, Bzz1-2, P38822; conditions: median of control spots 4538
# T7 sequence (P38822 568-633, looked up): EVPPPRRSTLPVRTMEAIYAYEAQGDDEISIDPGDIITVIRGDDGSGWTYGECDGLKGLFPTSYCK
# Cdc25, P04821 = target: T8, Cdc25, P04821; conditions: median of control spots 969
# T8 sequence (P04821 50-136, looked up): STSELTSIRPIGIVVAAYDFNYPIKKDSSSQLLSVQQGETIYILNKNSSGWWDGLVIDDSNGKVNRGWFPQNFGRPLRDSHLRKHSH
# Cyk3, Q07533 = target: T9, Cyk3, Q07533; conditions: median of control spots 1451
# T9 sequence (Q07533 1-83, looked up): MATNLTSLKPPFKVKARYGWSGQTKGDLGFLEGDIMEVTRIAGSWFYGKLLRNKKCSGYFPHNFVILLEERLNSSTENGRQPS
# Fus1, P11710 = target: T10, Fus1, P11710; conditions: median of control spots 1200
# T10 sequence (P11710 432-512, looked up): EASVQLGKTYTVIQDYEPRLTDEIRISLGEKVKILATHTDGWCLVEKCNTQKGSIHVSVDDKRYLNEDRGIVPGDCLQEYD
# GST = conditions: median of control spots 978
# Hof1, Q05080 = target: T11, Hof1, Q05080; conditions: median of control spots 4086
# T11 sequence (Q05080 590-669, looked up): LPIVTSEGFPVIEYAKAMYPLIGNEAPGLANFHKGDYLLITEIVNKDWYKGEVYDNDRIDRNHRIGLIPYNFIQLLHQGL
# Hse1, P38753 = target: T12, Hse1, P38753; conditions: median of control spots 1727
# T12 sequence (P38753 208-285, looked up): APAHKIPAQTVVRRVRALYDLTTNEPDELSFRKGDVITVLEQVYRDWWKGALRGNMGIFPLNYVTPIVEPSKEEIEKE
# Lsb1, P53281 = target: T13, Lsb1, P53281; conditions: median of control spots 388
# T13 sequence (P53281 45-122, looked up): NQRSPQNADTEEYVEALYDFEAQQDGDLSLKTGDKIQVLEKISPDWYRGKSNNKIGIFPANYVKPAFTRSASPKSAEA
# Lsb3, P43603 = target: T14, Lsb3, P43603; conditions: median of control spots 406
# T14 sequence (P43603 385-451, looked up): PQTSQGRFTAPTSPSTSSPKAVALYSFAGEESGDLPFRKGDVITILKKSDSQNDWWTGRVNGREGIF
# Lsb4, P32793 = target: T15, Lsb4, P32793; conditions: median of control spots 397
# T15 sequence (P32793 402-468, looked up): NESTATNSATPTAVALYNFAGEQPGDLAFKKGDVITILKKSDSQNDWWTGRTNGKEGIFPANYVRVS
# Myo3, P36006 = conditions: median of control spots 468
# Myo5, Q04439 = target: T16, Myo5, Q04439; conditions: median of control spots 471
# T16 sequence (Q04439 1072-1160, looked up): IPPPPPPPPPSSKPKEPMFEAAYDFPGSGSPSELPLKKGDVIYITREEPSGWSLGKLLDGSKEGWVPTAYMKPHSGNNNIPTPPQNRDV
# Nbp2, Q12163 = target: T17, Nbp2, Q12163; conditions: median of control spots 357
# T17 sequence (Q12163 103-180, looked up): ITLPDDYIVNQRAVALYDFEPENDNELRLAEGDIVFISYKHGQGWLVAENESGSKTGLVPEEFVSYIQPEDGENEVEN
# Pex13, P80667 = target: T18, Pex13, P80667; conditions: median of control spots 1341
# T18 sequence (P80667 295-386, looked up): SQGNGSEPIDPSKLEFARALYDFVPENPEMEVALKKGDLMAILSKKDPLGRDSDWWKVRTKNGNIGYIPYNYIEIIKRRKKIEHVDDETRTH
# Pin3, Q06449 = target: T19, Pin3, Q06449; conditions: median of control spots 2171
# T19 sequence (Q06449 53-122, looked up): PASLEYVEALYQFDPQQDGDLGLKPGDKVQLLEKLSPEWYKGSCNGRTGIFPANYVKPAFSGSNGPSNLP
# Rvs167, P39743 = conditions: median of control spots 2707
# Sho1, P40073 = conditions: median of control spots 1148
# Sla1-2, P32790 = target: T20, Sla1-2, P32790; conditions: median of control spots 712
# T20 sequence (P32790 60-140, looked up): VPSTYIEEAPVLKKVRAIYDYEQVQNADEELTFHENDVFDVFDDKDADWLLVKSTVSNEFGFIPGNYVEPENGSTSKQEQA
# Sla1-3, P32790 = target: T21, Sla1-3, P32790; conditions: median of control spots 5475
# T21 sequence (P32790 344-424, looked up): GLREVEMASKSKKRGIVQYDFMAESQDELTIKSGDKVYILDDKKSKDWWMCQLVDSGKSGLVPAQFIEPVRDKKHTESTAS
# Sequence of Sho1, P40073 (P40073 287-367): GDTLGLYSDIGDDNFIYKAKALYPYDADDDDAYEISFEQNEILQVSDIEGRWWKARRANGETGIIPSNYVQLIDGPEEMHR
# Sequence of Bem1-2, P29366 (P29366 139-227): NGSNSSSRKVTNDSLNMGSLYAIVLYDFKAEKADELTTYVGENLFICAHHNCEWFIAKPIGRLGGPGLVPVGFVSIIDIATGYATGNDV
# Sequence of Rvs167, P39743 (P39743 419-482): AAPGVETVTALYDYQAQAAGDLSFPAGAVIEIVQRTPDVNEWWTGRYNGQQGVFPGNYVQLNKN
# Sequence of Bem1-1, P29366 (P29366 55-141): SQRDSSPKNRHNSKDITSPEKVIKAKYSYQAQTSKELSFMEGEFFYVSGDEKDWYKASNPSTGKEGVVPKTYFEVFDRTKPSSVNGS
Binder,"SPOT intensity (Abp1, P15891)","SPOT intensity (Bbc1, P47068)","SPOT intensity (Bem1-1, P29366)","SPOT intensity (Bem1-2, P29366)","SPOT intensity (Boi1, P38041)","SPOT intensity (Boi2, P39969)","SPOT intensity (Bud14, P27637)","SPOT intensity (Bzz1-1, P38822)","SPOT intensity (Bzz1-2, P38822)","SPOT intensity (Cdc25, P04821)","SPOT intensity (Cyk3, Q07533)","SPOT intensity (Fus1, P11710)",SPOT intensity (GST),"SPOT intensity (Hof1, Q05080)","SPOT intensity (Hse1, P38753)","SPOT intensity (Lsb1, P53281)","SPOT intensity (Lsb3, P43603)","SPOT intensity (Lsb4, P32793)","SPOT intensity (Myo3, P36006)","SPOT intensity (Myo5, Q04439)",other results
NRARYLPQNPDIIAG,5,2,0,0,3,0,11,0,0,9,0,0,0,4,3,1,1,0,0,0,"SPOT intensity (Nbp2, Q12163): 1; SPOT intensity (Pex13, P80667): 0; SPOT intensity (Pin3, Q06449): 2; SPOT intensity (Rvs167, P39743): 0; SPOT intensity (Sho1, P40073): 10; SPOT intensity (Sla1-2, P32790): 0; SPOT intensity (Sla1-3, P32790): 11"
RTIRKLPLMSLSEYF,13,3,0,0,1,0,6,2,0,6,1,24,0,20,2,15,3,2,3,1,"SPOT intensity (Nbp2, Q12163): 1; SPOT intensity (Pex13, P80667): 12; SPOT intensity (Pin3, Q06449): 27; SPOT intensity (Rvs167, P39743): 0; SPOT intensity (Sho1, P40073): 6; SPOT intensity (Sla1-2, P32790): 1; SPOT intensity (Sla1-3, P32790): 19"
NFKRLLPRDPSEKSS,41,51,0,11,4,2,12,1,10,50,3,145,0,15,72,0,0,0,6,0,"SPOT intensity (Nbp2, Q12163): 12; SPOT intensity (Pex13, P80667): 7; SPOT intensity (Pin3, Q06449): 7; SPOT intensity (Rvs167, P39743): 0; SPOT intensity (Sho1, P40073): 51; SPOT intensity (Sla1-2, P32790): 0; SPOT intensity (Sla1-3, P32790): 156"
YVRRRPRVRLEPLLS,101,273,0,15,13,17,26,0,15,156,4,19,9,20,54,13,0,3,5,1,"SPOT intensity (Nbp2, Q12163): 16; SPOT intensity (Pex13, P80667): 2; SPOT intensity (Pin3, Q06449): 2; SPOT intensity (Rvs167, P39743): 0; SPOT intensity (Sho1, P40073): 102; SPOT intensity (Sla1-2, P32790): 3; SPOT intensity (Sla1-3, P32790): 44"
LRWRHKFFLPAIAAI,0,18,0,1,1,0,10,1,0,26,4,53,0,0,21,0,0,0,0,0,"SPOT intensity (Nbp2, Q12163): 0; SPOT intensity (Pex13, P80667): 3; SPOT intensity (Pin3, Q06449): 4; SPOT intensity (Rvs167, P39743): 0; SPOT intensity (Sho1, P40073): 9; SPOT intensity (Sla1-2, P32790): 0; SPOT intensity (Sla1-3, P32790): 24"
KNPRRQLQIPRQQPS,92,46,2,1,0,0,6,2,2,54,0,0,4,2,3,216,3,8,4,1,"SPOT intensity (Nbp2, Q12163): 0; SPOT intensity (Pex13, P80667): 3; SPOT intensity (Pin3, Q06449): 3; SPOT intensity (Rvs167, P39743): 2; SPOT intensity (Sho1, P40073): 99; SPOT intensity (Sla1-2, P32790): 0; SPOT intensity (Sla1-3, P32790): 3"
